Assay results published in US20260070975A1 (SANTA ANA BIO, published 2026).
Residue numbers refer to the chain shown, from its start.

T1: siglec 2 expressed on HEK293 cells (UniProt P20273 20-847, limits assumed)
T1 construct: whole, on cells; also called Siglec-6 family member
T1 sequence (looked up): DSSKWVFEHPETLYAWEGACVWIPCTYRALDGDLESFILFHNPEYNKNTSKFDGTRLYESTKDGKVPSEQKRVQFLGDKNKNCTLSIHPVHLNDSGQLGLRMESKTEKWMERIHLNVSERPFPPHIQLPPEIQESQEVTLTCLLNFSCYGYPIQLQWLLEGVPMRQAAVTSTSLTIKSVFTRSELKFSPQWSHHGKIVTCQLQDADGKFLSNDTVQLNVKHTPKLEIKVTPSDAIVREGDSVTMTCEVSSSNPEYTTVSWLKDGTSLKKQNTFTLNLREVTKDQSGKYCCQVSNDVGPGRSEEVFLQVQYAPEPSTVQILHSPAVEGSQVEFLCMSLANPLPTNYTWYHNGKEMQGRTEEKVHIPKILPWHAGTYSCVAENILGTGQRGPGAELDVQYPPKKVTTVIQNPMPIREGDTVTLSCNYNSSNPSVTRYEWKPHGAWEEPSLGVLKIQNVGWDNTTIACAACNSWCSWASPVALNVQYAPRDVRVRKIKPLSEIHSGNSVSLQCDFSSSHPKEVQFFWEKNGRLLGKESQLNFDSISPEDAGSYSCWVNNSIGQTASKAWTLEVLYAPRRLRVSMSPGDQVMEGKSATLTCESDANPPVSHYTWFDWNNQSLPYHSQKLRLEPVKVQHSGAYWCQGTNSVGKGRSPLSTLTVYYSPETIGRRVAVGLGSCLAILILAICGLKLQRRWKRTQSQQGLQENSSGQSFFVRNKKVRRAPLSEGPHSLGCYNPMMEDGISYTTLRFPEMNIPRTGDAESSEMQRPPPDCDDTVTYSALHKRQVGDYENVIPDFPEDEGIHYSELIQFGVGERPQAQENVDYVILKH

T2: siglec 5 expressed on HEK293 cells (UniProt O15389 17-551, limits assumed)
T2 construct: whole, on cells; also called Siglec-6 family member
T2 sequence (looked up): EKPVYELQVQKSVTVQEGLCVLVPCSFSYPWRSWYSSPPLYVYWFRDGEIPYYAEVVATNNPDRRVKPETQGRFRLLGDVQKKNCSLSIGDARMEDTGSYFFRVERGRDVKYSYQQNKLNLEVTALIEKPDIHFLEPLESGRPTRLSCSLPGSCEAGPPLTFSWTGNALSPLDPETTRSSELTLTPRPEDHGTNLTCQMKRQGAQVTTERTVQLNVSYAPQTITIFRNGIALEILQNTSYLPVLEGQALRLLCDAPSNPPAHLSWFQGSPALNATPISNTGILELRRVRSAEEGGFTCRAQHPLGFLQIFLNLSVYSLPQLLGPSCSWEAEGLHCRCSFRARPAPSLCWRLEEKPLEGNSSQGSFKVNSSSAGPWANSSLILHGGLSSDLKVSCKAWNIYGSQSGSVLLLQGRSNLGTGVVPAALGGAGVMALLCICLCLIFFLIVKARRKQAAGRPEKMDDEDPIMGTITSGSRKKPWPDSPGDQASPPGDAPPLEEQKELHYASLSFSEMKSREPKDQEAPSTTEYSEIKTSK

T3: siglec 14 expressed on HEK293 cells (UniProt Q08ET2 17-396, limits assumed)
T3 construct: whole, on cells; also called Siglec-6 family member
T3 sequence (looked up): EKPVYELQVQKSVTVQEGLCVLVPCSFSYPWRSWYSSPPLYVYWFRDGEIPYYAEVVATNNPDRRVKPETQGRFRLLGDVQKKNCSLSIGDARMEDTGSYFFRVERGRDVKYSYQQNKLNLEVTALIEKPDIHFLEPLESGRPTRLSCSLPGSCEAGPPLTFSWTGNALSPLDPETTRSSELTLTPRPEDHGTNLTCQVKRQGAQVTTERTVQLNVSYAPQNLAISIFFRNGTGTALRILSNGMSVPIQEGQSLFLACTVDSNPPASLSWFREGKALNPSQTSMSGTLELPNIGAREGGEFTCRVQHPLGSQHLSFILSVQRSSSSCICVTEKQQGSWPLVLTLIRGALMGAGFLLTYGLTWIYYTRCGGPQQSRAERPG

B1: hRND-2 (antibody, human IgG1, kappa, V domains shown)
VH: QVQLVQSGAEVKKPGASVKVSCKASGYAFTSYWMHWVRQAPGQRLEWMGEIYPTNGGTTYAQKFQGRVTMTVDKSTSTAYMELSRLRSDDTAVYYCTIEDFYAMDYWGQGTTVTVSS
VL: DIVMTQTPLSLSVTPGQPASISCKSSQSLLDSDGKTSLNWLLQKPGQSPQRLIYLVSKLDSGVPDRFSGSGSGTDFTLKISRVEAEDVGVYYCWQGTHFPYTFGQGTKLEIKR
notes: also called humanized RND-2; hRND-H2 / hRND-L3; copies: 2 + 2
B2: hRND-3 (antibody, human IgG1, kappa, V domains shown)
VH: B1 VH with V20L, M48I, V68A, M70L
VL: B1 VL
notes: also called humanized RND-3; hRND-H3 / hRND-L3; copies: 2 + 2
B3: hRND-4 (antibody, human IgG1, kappa, V domains shown)
VH: B1 VH with A61N, Q62E, Q65K, G66R
VL: B1 VL
notes: also called humanized RND-4; hRND-H2b / hRND-L3; copies: 2 + 2
B4: hRND-5 (antibody, human IgG1, kappa, V domains shown)
VH: B1 VH with V20L, M48I, A61N, Q62E, Q65K, G66R, V68A, M70L
VL: B1 VL
notes: also called humanized RND-5; hRND-H3b / hRND-L3; copies: 2 + 2

The binders below were run against T4, Human siglec-6 expressed on the cell surface (HMC1.2 cells; HEK293 cells expressing human siglec-6) (human, UniProt O43699 27-453) (assay: flow cytometry on HMC1.2 cells).
T4 construct: whole, on cells; also called cell surface expressed siglec-6; CD327
T4 sequence (O43699 27-453): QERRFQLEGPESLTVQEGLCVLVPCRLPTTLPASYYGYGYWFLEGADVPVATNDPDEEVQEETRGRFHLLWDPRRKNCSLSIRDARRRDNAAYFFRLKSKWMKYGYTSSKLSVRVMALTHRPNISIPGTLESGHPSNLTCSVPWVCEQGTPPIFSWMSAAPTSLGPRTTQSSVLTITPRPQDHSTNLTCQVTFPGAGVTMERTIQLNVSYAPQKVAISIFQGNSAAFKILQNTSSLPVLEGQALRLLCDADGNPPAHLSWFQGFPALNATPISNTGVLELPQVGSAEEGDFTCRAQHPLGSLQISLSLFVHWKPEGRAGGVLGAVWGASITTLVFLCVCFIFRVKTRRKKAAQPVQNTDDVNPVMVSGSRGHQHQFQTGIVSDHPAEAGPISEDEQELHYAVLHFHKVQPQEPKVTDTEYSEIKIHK
Procedure: (§1) Target binding of siglec-6 antibodies to siglec-6-expressing cells was assessed by flow cytometry. Cultured HMC1.2 cells were resuspended in FACS Blocking Buffer (PBS+10% normal human serum) for 30 minutes. Following washing, cells were incubated with siglec-6 antibodies in FACS Buffer (PBS+0.5% bovine serum albumin+0.09% sodium azide) and incubated at 4° C. for 30 minutes, washed and incubated with PE-labeled anti-human or anti-mouse secondary antibodies. Cells were incubated at 4° C. for 30 minutes in the dark. Following washing, cytofluorimetric analysis was conducted using a BD FACS Symphony A3 (BD Biosciences). Cells were sorted by scatter properties and separated for single cell analysis using side scatter width vs side scatter area. Antibody binding to cells was quantitated by measuring fluorescent emissions of excitation wavelength of 561 nm using a 586/15 nm filter. All tested siglec-6 antibodies were capable of binding to cells expressing siglec-6.
For B1, the MFI was 3130 MFI and the “Percent Positive for Siglec-6 on HMC1.2 cells” value (shortened to “Percent Positive”) was 99.9%. B2 was tested, and the MFI was 3700 MFI and the “Percent Positive” value was 99.9%. For B3, the MFI was 3200 MFI and the “Percent Positive” value was 100%. B4 was tested, and the MFI was 1940 MFI and the “Percent Positive” value was 99.9%.

What follows are binders tested against T1, siglec 2 expressed on HEK293 cells (assay: flow cytometry on HEK293 cells expressing the target).
Procedure: as §1, with “Cultured HEK293” for “Target binding of siglec-6 antibodies to siglec-6-expressing”, “expressing human siglec-6, cynomolgus siglec-6, or siglec 6 family members” for “was assessed by flow cytometry. Cultured HMC1.2 cells”, “anti-human” for “anti-human or anti-mouse”, “antibody.” for “antibodies.”, “Data analysis was performed using FlowJo Software.” for “All tested siglec-6 antibodies were capable of binding to cells expressing siglec-6.”
B1: no binding. B2: no binding. B3: no binding. B4: no binding.

Each binder was assayed against T2, siglec 5 expressed on HEK293 cells in the same assay as above.
Procedure: as §1, with “Cultured HEK293” for “Target binding of siglec-6 antibodies to siglec-6-expressing”, “expressing human siglec-6, cynomolgus siglec-6, or siglec 6 family members” for “was assessed by flow cytometry. Cultured HMC1.2 cells”, “anti-human” for “anti-human or anti-mouse”, “antibody.” for “antibodies.”, “Data analysis was performed using FlowJo Software.” for “All tested siglec-6 antibodies were capable of binding to cells expressing siglec-6.”
B1: no binding. B2: no binding. B3: no binding. B4: no binding.

These binders were tested against T3, siglec 14 expressed on HEK293 cells in the same assay as above.
Procedure: as §1, with “Cultured HEK293” for “Target binding of siglec-6 antibodies to siglec-6-expressing”, “expressing human siglec-6, cynomolgus siglec-6, or siglec 6 family members” for “was assessed by flow cytometry. Cultured HMC1.2 cells”, “anti-human” for “anti-human or anti-mouse”, “antibody.” for “antibodies.”, “Data analysis was performed using FlowJo Software.” for “All tested siglec-6 antibodies were capable of binding to cells expressing siglec-6.”
B1: no binding. B2: no binding. B3: no binding. B4: no binding.

The binders below were run against T5, siglec 1 expressed on HEK293 cells (UniProt Q9BZZ2 20-1709, limits assumed) in the same assay as above.
T5 construct: whole, on cells; also called Siglec-6 family member
T5 sequence (Q9BZZ2 20-1709 limits assumed): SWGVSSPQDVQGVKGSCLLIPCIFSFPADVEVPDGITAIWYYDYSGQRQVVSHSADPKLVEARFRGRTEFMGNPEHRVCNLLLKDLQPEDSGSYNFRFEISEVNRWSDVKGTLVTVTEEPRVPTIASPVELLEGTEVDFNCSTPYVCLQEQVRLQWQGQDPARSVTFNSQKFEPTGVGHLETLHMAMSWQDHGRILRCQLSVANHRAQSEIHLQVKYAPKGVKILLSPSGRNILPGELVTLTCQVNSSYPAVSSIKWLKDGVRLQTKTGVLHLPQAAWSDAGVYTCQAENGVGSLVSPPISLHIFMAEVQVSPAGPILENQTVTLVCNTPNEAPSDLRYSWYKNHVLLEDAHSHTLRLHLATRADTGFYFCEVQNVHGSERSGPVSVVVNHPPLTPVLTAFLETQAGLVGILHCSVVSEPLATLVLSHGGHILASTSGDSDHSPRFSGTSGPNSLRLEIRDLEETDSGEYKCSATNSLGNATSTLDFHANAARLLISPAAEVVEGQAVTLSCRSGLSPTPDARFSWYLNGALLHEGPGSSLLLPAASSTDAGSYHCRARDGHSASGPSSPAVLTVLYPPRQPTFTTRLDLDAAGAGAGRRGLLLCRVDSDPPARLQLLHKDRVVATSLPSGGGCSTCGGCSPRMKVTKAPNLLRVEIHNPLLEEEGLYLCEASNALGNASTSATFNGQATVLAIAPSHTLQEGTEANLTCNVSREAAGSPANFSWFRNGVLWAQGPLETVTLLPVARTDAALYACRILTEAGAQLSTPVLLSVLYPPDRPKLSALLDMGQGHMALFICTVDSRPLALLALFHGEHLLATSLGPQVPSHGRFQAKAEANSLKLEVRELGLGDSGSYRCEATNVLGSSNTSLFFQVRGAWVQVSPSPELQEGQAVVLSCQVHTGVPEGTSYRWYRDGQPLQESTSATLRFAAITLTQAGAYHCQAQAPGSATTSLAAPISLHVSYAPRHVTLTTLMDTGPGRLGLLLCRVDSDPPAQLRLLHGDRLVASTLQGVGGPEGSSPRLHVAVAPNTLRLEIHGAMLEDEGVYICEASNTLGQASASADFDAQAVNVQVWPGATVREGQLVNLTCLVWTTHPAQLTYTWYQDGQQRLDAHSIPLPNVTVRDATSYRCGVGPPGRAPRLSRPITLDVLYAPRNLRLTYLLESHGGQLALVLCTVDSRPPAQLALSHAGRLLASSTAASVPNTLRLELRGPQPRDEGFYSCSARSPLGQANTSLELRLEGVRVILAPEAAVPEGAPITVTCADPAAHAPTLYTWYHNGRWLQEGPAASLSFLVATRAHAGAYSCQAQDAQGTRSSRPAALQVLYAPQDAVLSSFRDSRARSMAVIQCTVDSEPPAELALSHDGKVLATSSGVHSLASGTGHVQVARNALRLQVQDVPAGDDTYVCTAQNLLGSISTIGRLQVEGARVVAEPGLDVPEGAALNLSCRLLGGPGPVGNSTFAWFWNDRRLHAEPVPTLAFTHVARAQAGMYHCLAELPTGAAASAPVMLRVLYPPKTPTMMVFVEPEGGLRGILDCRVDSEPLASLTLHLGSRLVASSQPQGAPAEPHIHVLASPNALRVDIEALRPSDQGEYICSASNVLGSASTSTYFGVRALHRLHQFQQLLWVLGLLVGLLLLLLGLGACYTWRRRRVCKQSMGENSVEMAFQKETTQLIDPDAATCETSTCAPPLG
Procedure: as §1, with “Cultured HEK293” for “Target binding of siglec-6 antibodies to siglec-6-expressing”, “expressing human siglec-6, cynomolgus siglec-6, or siglec 6 family members” for “was assessed by flow cytometry. Cultured HMC1.2 cells”, “anti-human” for “anti-human or anti-mouse”, “antibody.” for “antibodies.”, “Data analysis was performed using FlowJo Software.” for “All tested siglec-6 antibodies were capable of binding to cells expressing siglec-6.”
B1: no binding. B2: no binding. B3: no binding. B4: no binding.
